From patent publication US20180044374A1

How the values were obtained:
[1] = target: human polyclonal IgG (Gammanorm) (human); assay: pH 6-3 citrate gradient elution from column, peak 1
[2] = target: human polyclonal IgG (Gammanorm) (human); assay: pH 6-3 citrate gradient elution from column, peak 2
[3] = target: human polyclonal IgG (Gammanorm) (human); assay: dynamic binding capacity, 6 min residence; ligand 9.7 mg/ml on agarose beads
[4] = target: human polyclonal IgG (Gammanorm) (human); assay: as above; remark: listed apart in the source
[5] = target: human polyclonal IgG (Gammanorm) (human); assay: dynamic binding capacity, measured after six 4 h cycles in 1.0 M NaOH; ligand 9.7 mg/ml on agarose beads
[6] = target: human polyclonal IgG (Gammanorm) (human); assay: dynamic binding capacity, measured after 24 h cumulative exposure to 0.5 M NaOH; ligand 9.7 mg/ml on agarose beads
[7] = target: human polyclonal IgG (Gammanorm) (human); assay: dynamic binding capacity, 6 min residence; ligand […] on agarose beads
[8] = target: human polyclonal IgG (Gammanorm) (human); assay: dynamic binding capacity, 6 min residence; ligand 7.0 mg/ml on agarose beads
[9] = target: human polyclonal IgG (Gammanorm) (human); assay: dynamic binding capacity, measured after 24 h cumulative exposure to 0.5 M NaOH; ligand […] on agarose beads
[10] = target: human polyclonal IgG (Gammanorm) (human); assay: dynamic binding capacity, measured after 24 h cumulative exposure to 0.5 M NaOH; ligand 7.0 mg/ml on agarose beads

MabSelect SuRe LX (GE Healthcare Life Sciences)
Elution pH [1]: 4.01 pH | Elution pH [2]: 3.7 pH

Zvar(N11K, H18K, S33K, D37E, A42R, N43A, L44I, K50R, L51Y)4 with an additional N-terminal cysteine (Examples 4 and 5) (designed binder)
Initial IgG capacity Qb10 [3]: 56.3 mg/mL | Initial IgG capacity Qb10 [4]: 62.1 mg/mL | Remaining IgG capacity Qb10 after six 4 h cycles [5]: 48.1 mg/mL | Remaining IgG capacity Qb10 after six 4 h cycles [6]: 52 mg/mL

Zvar(Q9A, N11E, N28A, N43A)4 with an additional N-terminal cysteine (Example 4) (designed binder)
Initial IgG capacity Qb10 [7]: 50 mg/mL | Initial IgG capacity Qb10 [8]: 49.1 mg/mL | Remaining IgG capacity Qb10 after six 4 h cycles [9]: 46.2 mg/mL | Remaining IgG capacity Qb10 after six 4 h cycles [10]: 44.1 mg/mL
